Assay results from publication doi:10.1101/2020.08.02.233536.

Tests used:
[1] = target: His-tagged SARS-CoV RBD protein (binding studies) (SARS-CoV) (UniProt P59594); experiment: BLI
[2] = target: His-tagged SARS-CoV-2 RBD protein (binding studies) (SARS-CoV-2) (UniProt P0DTC2); experiment: BLI

Substance	Kd [1]	Kd [2]
COVA1–16 Fab, His-tagged	405 nM	46 nM
COVA1–16 IgG1 antibody	125 nM	0.2 nM
